Measurements published in patent US20250376511A1 (Sanofi, published 2025).
Numbering of substitutions follows the chain as printed. Like-named read-outs stand apart in the source and are kept apart here. Values belong to the binder of their own block, whether it stands above or below them.

Legend:
[1] = target: T1, Human active C1s (Complement Technology) (human, UniProt P09871 16-688); assay: cell-based or functional assay
T1 sequence: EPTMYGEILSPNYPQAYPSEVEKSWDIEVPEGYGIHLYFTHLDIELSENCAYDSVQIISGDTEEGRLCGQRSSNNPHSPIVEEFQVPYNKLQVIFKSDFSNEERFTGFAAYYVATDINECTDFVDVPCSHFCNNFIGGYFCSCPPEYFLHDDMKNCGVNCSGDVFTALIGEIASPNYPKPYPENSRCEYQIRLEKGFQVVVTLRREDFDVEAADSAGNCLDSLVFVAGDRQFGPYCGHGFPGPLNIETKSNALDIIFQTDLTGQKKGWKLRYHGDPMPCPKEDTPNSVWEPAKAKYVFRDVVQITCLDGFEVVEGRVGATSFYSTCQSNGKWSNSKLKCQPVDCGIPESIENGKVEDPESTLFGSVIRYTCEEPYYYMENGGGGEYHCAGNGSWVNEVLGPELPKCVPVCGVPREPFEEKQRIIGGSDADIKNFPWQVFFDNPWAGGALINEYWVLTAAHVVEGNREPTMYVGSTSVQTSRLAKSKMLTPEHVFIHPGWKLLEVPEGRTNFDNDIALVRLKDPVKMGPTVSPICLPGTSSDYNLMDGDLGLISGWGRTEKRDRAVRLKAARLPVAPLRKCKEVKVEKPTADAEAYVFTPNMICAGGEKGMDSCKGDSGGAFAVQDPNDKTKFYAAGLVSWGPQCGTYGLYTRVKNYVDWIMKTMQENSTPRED

[2] = target: T1, Human active C1s (Complement Technology); assay: cell-based or functional assay; remark: listed apart in the source
[3] = target: T1, Human active C1s (Complement Technology); assay: cell-based or functional assay; remark: listed apart in the source
[4] = target: T1, Human active C1s (Complement Technology); assay: SPRi Carterra LSA, antibody captured on protein A/G, human active C1s as analyte, 25 C, 1:1 fit
Experimental: C1s binding using surface plasmon resonance (SPRi): Analysis of active C1s binding was performed on a Carterra LSA SPRi instrument at 25° C. Protein A/G (Sigma) diluted in 25 mM MES pH 6.0, 0.05% Tween-20 running buffer was covalently immobilized to an HC200M sensor chip using amine coupling. Antibodies were diluted to 0.2 μg/mL in HBS-EP+ buffer and printed in duplicate to the protein A/G surface in the capture 96-array format for 5 min followed by a 1 min baseline in buffer. Human active C1s (Complement Technology) was serially diluted […] from 1 μM to 0.781 nM in running buffer and injected over the captured antibodies for 5 min with a 5 min dissociation time. The surface was regenerated with 10 mM glycine pH 1.5 with two 30 sec injections. Sensorgrams were processed with the Carterra® K.I.T. Inspection Tool and fit to a 1:1 binding model to obtain kinetic constants.
Three variants were selected as viable engineered alternatives to the wild-type anti-aC1s sequence: D32E, D32S, and D32Y. The three variants were expressed as bivalent monospecific anti-aC1s antibodies with human IgG1 and their affinity for aC1s tested by surface plasmon resonance (Table 5).

[5] = target: T1, Human active C1s (Complement Technology); assay: SPR Biacore T200, antibody captured on anti-human Fc, human active C1s as analyte, 1:1 fit
Experimental: (§1) TfR and C1s binding using surface plasmon resonance (SPR): Analysis of antibody binding to TfR was performed on a Biacore™ T200 instrument using anti-His capture at 25° C. Anti-His (Qiagen) was buffer exchanged into PBS pH 7.2, diluted to 25 μg/mL in 10 mM sodium acetate pH 4.0 and directly immobilized to a series S CM5 chip to a surface density of ˜10,000 RU using the amine coupling kit provided by Cytiva. His-tagged recombinant human TfR (produced in-house) was diluted in HBS-EP+ pH 7.4 running buffer (10 mM HEPES pH 7.4, 150 mM NaCl, 3 mM EDTA, 0.05% surfactant P20) and injected for 5 sec at 20 μL/min flowrate to obtain capture level of 20 RU. Antibodies were serially diluted 2-fold from 90 to 5.625 nM in running buffer and injected over the captured TfR for 3 min followed by 9 min dissociation in buffer at 30 μL/min. Each cycle was regenerated with 10 mM glycine pH 1.5. To measure C1s binding, anti-human Fc (Jackson) was directly immobilized to a CM5 chip using amine chemistry. Antibodies were diluted to 2.5 μg/mL in HBS-EP+ pH 7.4 and captured to the chip for 15 sec at 20 μL/min flowrate. Human active C1s (Complement Technology) was serially diluted 2-fold from 20 to 0.625 nM in running buffer and injected over the captured antibodies for 180 sec at 50 μL/min followed by 9 min dissociation in buffer. The bound complex was removed from the chip each cycle with 40 mM HCl and 0.85% phosphoric acid. Sensorgrams were processed using the Biacore™ Insight software and fit to a 1:1 binding model to obtain kinetic constants.
(§2) The six bispecific anti-aC1s/anti-TfR antibodies were first tested for their affinity for both TfR and aC1s via surface plasmon resonance (SPR) (Table 2).

[6] = target: T1, Human active C1s (Complement Technology); assay: cell-based or functional assay; remark: listed apart in the source
[7] = target: T2, His-tagged recombinant human TfR (produced in-house) (human, UniProt P02786 89-760); assay: SPR Biacore T200, His-tagged human TfR captured on anti-His, antibody as analyte, 25 C, 1:1 fit
T2 construct: also called hTfR; transferrin receptor 1
T2 sequence (P02786 89-760 limits assumed): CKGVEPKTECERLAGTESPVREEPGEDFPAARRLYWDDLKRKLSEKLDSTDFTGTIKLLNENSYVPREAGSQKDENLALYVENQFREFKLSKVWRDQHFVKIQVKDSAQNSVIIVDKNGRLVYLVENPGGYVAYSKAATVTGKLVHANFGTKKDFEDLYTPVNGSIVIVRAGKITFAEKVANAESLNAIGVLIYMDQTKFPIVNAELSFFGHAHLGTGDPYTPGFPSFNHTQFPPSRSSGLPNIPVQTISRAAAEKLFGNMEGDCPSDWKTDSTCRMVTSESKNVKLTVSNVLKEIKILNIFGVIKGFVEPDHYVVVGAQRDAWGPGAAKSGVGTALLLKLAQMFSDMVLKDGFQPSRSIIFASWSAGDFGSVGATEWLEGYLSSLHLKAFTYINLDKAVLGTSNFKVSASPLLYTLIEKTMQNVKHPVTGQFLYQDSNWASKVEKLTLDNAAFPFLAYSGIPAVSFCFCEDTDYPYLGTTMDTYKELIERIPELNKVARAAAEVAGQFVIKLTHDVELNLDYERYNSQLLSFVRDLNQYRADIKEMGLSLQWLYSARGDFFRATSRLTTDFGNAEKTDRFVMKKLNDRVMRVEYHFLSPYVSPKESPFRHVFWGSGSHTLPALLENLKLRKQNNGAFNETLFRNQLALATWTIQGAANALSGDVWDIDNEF
Experimental: as §1, §2

IC50, Wieslab Complement Pathway Assay (classical pathway, 1% NHS) [1]: 1.07 µg/mL
IC50, Wieslab Complement Pathway Assay (classical pathway, 1% NHS) [2]: 0.77 µg/mL
IC50, Wieslab Complement Pathway Assay (batch 1) [3]: 0.45 µg/mL
IC50, Wieslab Complement Pathway Assay (batch 2) [3]: 0.63 µg/mL
Kd [4]: 2.5 nM
koff [4]: 0.0033 s⁻¹
kon [4]: 1.3e+06 M⁻¹ s⁻¹
B1: SAR445088 (antibody, V domains shown)
VH: QVQLVQSGAEVKKPGASVKLSCTASGFNIKDDYIHWVKQAPGQGLEWIGRIDPADGHTKYAPKFQVKVTITADTSTSTAYLELSSLRSEDTAVYYCARYGYGREVFDYWGQGTTVTVSS
VL: DIVLTQSPDSLAVSLGERATISCKASQSVDYDGDSYMNWYQQKPGQPPKILIYDASNLESGIPARFSGSGSGTDFTLTISSLEPEDFAIYYCQQSNEDPWTFGGGTKVEIK
modifications: sulfated tyrosine (Y36) on the light chain
notes: Bivalent monospecific anti-aC1s antibody; also called BIVV020; the wild-type antibody

IC50, Wieslab Complement Pathway Assay (classical pathway, 1% NHS) [1]: 0.84 µg/mL
B2: aC1s_088 IgG1-dK (antibody, V domains shown)
VH: B1 VH
VL: B1 VL

IC50, Wieslab Complement Pathway Assay (classical pathway, 1% NHS) [1]: 1.36 µg/mL
Kd [4]: 2.5 nM
koff [4]: 0.0032 s⁻¹
kon [4]: 1.3e+06 M⁻¹ s⁻¹
B3: aC1s_D32E IgG1-dK (antibody, V domains shown)
VH: B1 VH
VL: B1 VL with D32E
modifications: Y36 sulfation: Yes

IC50, Wieslab Complement Pathway Assay (classical pathway, 1% NHS) [2]: 2.02 µg/mL
Kd [5]: 0.68 nM
koff [5]: 0.00285 s⁻¹
kon [5]: 4.22e+06 M⁻¹ s⁻¹
IC50, C3d deposition on neurons in iPSC tricultures with serum [6]: 29.7 µg/mL
Kd [7]: 24.6 nM
koff [7]: 0.0049 s⁻¹
kon [7]: 199000 M⁻¹ s⁻¹
B4: aC1s_088 × 531v25 IgG1-NNAS/dK (bispecific antibody, V domains shown)
VH 1: B1 VH with Q39E
VL 1: B1 VL with Q42K
VH 2: QVQLVQSGAEVKKPGASVKVSCKASGYTFTRYYLNWVRKAPGQGLEWIGMIDPSVSETHYAQKFQGRATLTVDKSTSTAYMELSSLRSEDTAVYYCSQIRLPYYYAMDSWGQGTTVTVSS
VL 2: DIQMTQSPSSLSASVGDRVTITCRASQDISSFLNWYQEKPGKAPKLLIYYTSRLQSGVPSRFSGSGSGTDYTLTISSLQPEDFATYYCQQGNTLPRTFGGGTKVEIK
notes: IgG1-NNAS Fc, dK, with charge pairing mutations; The starred variable domains are used, as for m5

IC50, Wieslab Complement Pathway Assay (classical pathway, 1% NHS) [1]: 10.7 µg/mL
Kd [4]: 7.3 nM
koff [4]: 0.0065 s⁻¹
kon [4]: 890000 M⁻¹ s⁻¹
B5: aC1s_D32S IgG1-dK (antibody, V domains shown)
VH: B1 VH
VL: B1 VL with D32S
notes: Bivalent monospecific human IgG1

IC50, Wieslab Complement Pathway Assay (classical pathway, 1% NHS) [2]: 1.78 µg/mL
Kd [5]: 0.69 nM
koff [5]: 0.00272 s⁻¹
kon [5]: 3.96e+06 M⁻¹ s⁻¹
IC50, C3d deposition on neurons in iPSC tricultures with serum [6]: 12.8 µg/mL
Kd [7]: 20.3 nM
koff [7]: 0.00332 s⁻¹
kon [7]: 164000 M⁻¹ s⁻¹
B6: aC1s_088 × 531v25.v6 IgG1-NNAS/dK (bispecific antibody, V domains shown)
VH 1: B1 VH with Q39E
VL 1: B1 VL with Q42K
VH 2: B4 VH 2
VL 2: B4 VL 2 with S30E
notes: as for B4
